Results: US10925971B2, “Methods of treating PRLR positive breast cancer” (Regeneron Pharmaceuticals, Inc., priority 2016, dated 2021)

What was measured:
PC3/PRLR tumors = assay: PC3/PRLR xenograft, tumor size and tumor growth inhibition; format: in vivo, SCID mice; conditions: PC3/PRLR tumors TRIAL #2; SCID mice; multi-dose 15 mg/kg; Day 55
Procedure, shortened: (§1)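 MCF7/PRLR cells in mammary fat pad of female NCr nude mice, PC3/PRLR in flank of male SCID, T47D #11 in flank of female CB17 SCID, all with estrogen pellets.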

MCF7/PRLR tumors = assay: MCF7/PRLR breast cancer xenograft, tumor size and tumor growth inhibition; format: in vivo, NCr nude mice; conditions: MCF7/PRLR tumors TRIAL #2; NCr Nude mice; multi-dose 15 mg/kg; Day 63
Procedure, shortened: as §1

[1] = molecular target: T1, monkey PRLR on HEK293/mfPRLR cells (Macaca fascicularis, UniProt A0A2K5WXK1); assay: FACS cell surface binding
T1 construct: HA; expressed in transfected cells; host or cells: HEK293
T1 sequence (A0A2K5WXK1 25-619): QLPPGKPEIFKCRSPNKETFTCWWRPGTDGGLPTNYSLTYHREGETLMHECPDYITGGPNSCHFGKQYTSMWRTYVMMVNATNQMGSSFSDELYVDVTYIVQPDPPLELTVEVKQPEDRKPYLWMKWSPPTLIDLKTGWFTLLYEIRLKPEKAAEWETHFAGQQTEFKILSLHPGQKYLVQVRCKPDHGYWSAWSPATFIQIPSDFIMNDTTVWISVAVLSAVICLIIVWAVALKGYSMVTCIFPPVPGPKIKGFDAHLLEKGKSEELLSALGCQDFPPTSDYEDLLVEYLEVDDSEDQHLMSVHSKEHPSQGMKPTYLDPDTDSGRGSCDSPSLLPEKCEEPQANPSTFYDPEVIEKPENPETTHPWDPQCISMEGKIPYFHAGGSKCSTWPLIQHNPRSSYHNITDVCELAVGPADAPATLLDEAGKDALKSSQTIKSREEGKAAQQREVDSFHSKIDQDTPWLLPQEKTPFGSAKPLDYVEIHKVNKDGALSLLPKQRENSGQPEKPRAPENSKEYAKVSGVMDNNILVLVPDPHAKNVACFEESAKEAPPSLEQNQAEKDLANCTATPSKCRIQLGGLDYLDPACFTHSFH
Procedure, shortened: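 Values are mean fluorescence intensity relative to an isotype control (background). Antibodies at 10 μg/ml were incubated on ice for 30 min with HEK293 lines stably overexpressing HA-tagged species PRLR or with parental cells. A PE-conjugated anti-human secondary was used for detection.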

T47D#11 tumors = format: in vivo, CB17 SCID mice; conditions: T47D#11 tumors; SCID mice; multi-dose 15 mg/kg; Day 66
Procedure, shortened: as §1

B1: H1H6765P: fully human anti-PRLR antibody, human IgG1 Fc; HCVR/LCVR SEQ ID NOs 18/26 (antibody, V domains shown)
VH: EVQLVESGGGVVRPGGSLRLSCVGSGFSFDDHGMNWVRQGPGKGLEWVSGFNWNGGSTNYAESVKGRFTISRDNARNSLFLQMNSLRAEDTALYYCVRGRSGWFNDAFDVWGPGTMVTVSS
VL: EIVLTQSPGTLSLSPGERATLSCRASQTINSNYLAWYRQKPGQTPRLLIYGTSSRATGIPDRFSGSGSGTDFSLTISRLEPEDFAVFYCQQYAGLPTFGPGTKVDIK
Final Tumor size mm^3 (mean ± SEM) (PC3/PRLR tumors): 1208 ± 72 mm^3 | Average Tumor Growth Inhibition (%) (MCF7/PRLR tumors): 19% | Final Tumor size mm^3 (mean ± SEM) (MCF7/PRLR tumors): 737 ± 182 mm^3 | FACS Cell Binding [1]: 27 Fold Above Background | Average Tumor Growth Inhibition (%) (T47D#11 tumors): −3% | Final Tumor size mm^3 (mean ± SEM) (T47D#11 tumors): 1278 ± 164 mm^3

B2: H1H6782P: fully human anti-PRLR antibody, non-blocking; HCVR/LCVR SEQ ID NOs 66/74 (antibody, V domains shown)
VH: EVQLVESGGGLVQPGRSLRLSCAASGFTFDDYAMHWVRQAPGKGLEWVSGIIWNSGHIGYGDSVKGRFTISRDNAKKSLYLQMNSLRAEDTALYYCARDSGRYQSYFDYWGQGTLVTVSS
VL: DIQMTQSPSTLSASVGDRVTITCRASHIISSWLAWYQQKPGKAPKVLIFKASSLESGVPSRFSGSGSGTEFTLTISSLQPDDFATYYCQQYNTYSRTFGQGTKVEIK
Average Tumor Growth Inhibition (%) (PC3/PRLR tumors): 6% | Final Tumor size mm^3 (mean ± SEM) (PC3/PRLR tumors): 1154 ± 212 mm^3 | Average Tumor Growth Inhibition (%) (MCF7/PRLR tumors): 88% | Final Tumor size mm^3 (mean ± SEM) (MCF7/PRLR tumors): 300 ± 83 mm^3 | FACS Cell Binding [1]: 32 Fold Above Background | Average Tumor Growth Inhibition (%) (T47D#11 tumors): −29% | Final Tumor size mm^3 (mean ± SEM) (T47D#11 tumors): 1537 ± 111 mm^3
